What was measured:
[1] = Substrate specificities of KAZ mutants (ZZ-fused, crude enzyme), h-CTZ; type: biochemical; conditions: 1 μg substrate
Procedure: (§1) The coelenterazine analogues used for substrate specificity studies were synthesized by the methods described in publications. Specifically, bis-coelenterazine was synthesized by the method described in Nakamura et al. (1997) Tetrahedron Lett. 38: 6405-6406; furimazine by the method described in Hall et al. (2012) ACS Chem. Biol. […]; and, 6h-coelenterazine, f-coelenterazine and 6h-f-coelenterazine by the methods described in Inouye et al (2013) Biochem. Biophys. Res. Commun. 437: 23-28.
(§2) DTT was added to the crude enzyme solutions obtained in EXAMPLE 17 at a final concentration of 1 mM and the mixtures were allowed to stand in an ice water for more than 5 hours in the same manner as Example 8. A luminescence reaction was started by the addition of 1 μL each of the crude enzyme solutions to 100 μL of TE containing 1 μg of coelenterazine (manufactured by JNC Corp.) or its analogues. The luminescence activities were determined using a luminometer (manufactured by Atto Inc.: AB2200) for 60 seconds, and the maximum intensity of luminescence (Imax) was shown as relative luminescence activity.

[2] = Substrate specificities of KAZ mutants (ZZ-fused, crude enzyme), f-CTZ; type: biochemical; conditions: 1 μg substrate
Procedure: as §1, §2

[3] = Substrate specificities of KAZ mutants (ZZ-fused, crude enzyme), furimazine; type: biochemical; conditions: 1 μg substrate
Procedure: as §1, §2

[4] = Substrate specificities of KAZ mutants (ZZ-fused, crude enzyme), 6h-CTZ; type: biochemical; conditions: 1 μg substrate
Procedure: as §1, §2

[5] = Substrate specificities of KAZ mutants (ZZ-fused, crude enzyme), bis-CTZ; type: biochemical; conditions: 1 μg substrate
Procedure: as §1, §2

CHO-K1 cells = experiment: Luminescence activity of KAZ mutants expressed in animal culture cells with signal peptide of Gaussia luciferase for secretion; type: cell-based, Chinese hamster; conditions: pcDNA3-GLsp- vectors
In short: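 CHO-K1 cells were transfected with the KAZ mutant plasmid plus an internal standard vector. After 48 h, culture medium and sonicated cell extracts were collected. 5 μL of each was added to 0.5 μg coelenterazine in 30 mM Tris-HCl pH 7.6, 10 mM EDTA, and luminescence was read for 60 s, with maximum intensity (Imax) expressed as a percentage.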

[6] = maximum intensity of luminescence

B1: KAZ: wild 19 kDa catalytic protein of Oplophorus luciferase (19kOLase), amino acid sequence SEQ ID NO: 2 (protein, listed as Oplophorus gracilirostris)
chain: FTLADFVGDWQQTAGYNQDQVLEQGGLSSLFQALGVSVTPIQKVVLSGENGLKADIHVIIPYEGLSGFQMGLIEMIFKVVYPVDDHHFKIILHYGTLVIDGVTPNMIDYFGRPYPGIAVFDGKQITVTGTLWNGNKIYDERLINPDGSLLFRVTINGVTGWRLCENILA
[1]; integrated for 60 seconds
  Relative Luminescence Activity h-CTZ Int.: 0.7
[1]; [6]
  Relative Luminescence Activity h-CTZ Imax: 1.1
[2]; integrated for 60 seconds
  Relative Luminescence Activity f-CTZ Int.: 0.8
[2]; [6]
  Relative Luminescence Activity f-CTZ Imax: 0.9
[3]; integrated for 60 seconds
  Relative Luminescence Activity Furimazine Int.: 0.5
[3]; [6]
  Relative Luminescence Activity Furimazine Imax: 0.4
[4]; integrated for 60 seconds
  Relative Luminescence Activity 6h-CTZ Int.: 0.2
[4]; [6]
  Relative Luminescence Activity 6h-CTZ Imax: 0.1
[5]; integrated for 60 seconds
  Relative Luminescence Activity bis-CTZ Int.: 0.9
[5]; [6]
  Relative Luminescence Activity bis-CTZ Imax: 0.6
CHO-K1 cells; Table 5, CHO-K1, 48 hours, 5 μL cell extracts, 0.5 μg coelenterazine
  Relative Luminescence Activity (Imax) (%) Cell Extracts: 0.1%
CHO-K1 cells; Table 5, CHO-K1, 48 hours, 5 μL culture medium, 0.5 μg coelenterazine
  Relative Luminescence Activity (Imax) (%) Culture Medium: less than 0.01%
CHO-K1 cells; Table 11, CHO-K1, cell extracts, coelenterazine
  Relative Luminescence Activity (%, Imax) Cell Extracts: 0.3%
CHO-K1 cells; Table 11, CHO-K1, culture medium, coelenterazine
  Relative Luminescence Activity (%, Imax) Culture Medium: less than 0.01%

Source: patent US10907134B2, “Mutated genes for the catalytic protein of oplophorus luciferase and use thereof” (JNC CORPORATION, priority 2013, dated 2021)
